Data reported in publication PMC4081113, “Cationic Surfactant-Based Colorimetric Detection of Plasmodium Lactate Dehydrogenase, a Biomarker for Malaria, Using the Specific DNA Aptamer”.

Legend:
[1] = target: human lactate dehydrogenase A chain (hLDHA) (human, UniProt P00338 2-332); experiment: colorimetric AuNP/CTAB aggregation assay (A650/A520); 1 uM protein, 4 nM CTAB; 20 mM HEPES pH 7.4, room temperature, 20 nM aptamer with protein 20 min, then 4 nM CTAB 20 min, then AuNPs 5 min (200 uL final)
fibrinogen = fibrinogen (human, UniProt P02671-2;P02675;P02679-2 20-644;31-491;27-437); experiment: as above; details: protein: commercial; chain copies: 2;2;2
[2] = target: Plasmodium falciparum lactate dehydrogenase (PfLDH) (Plasmodium falciparum, UniProt Q76NM3 1-316); experiment: colorimetric AuNP/CTAB aggregation assay (A650/A520); 4 nM CTAB, 20 nM aptamer; LOD 2.94 pM (not a Kd); 20 mM HEPES pH 7.4, room temperature, 20 nM aptamer with protein 20 min, then 4 nM CTAB 20 min, then AuNPs 5 min (200 uL final); details: protein: recombinant; chain copies: 4
[3] = target: Plasmodium vivax lactate dehydrogenase (PvLDH) (Plasmodium vivax, UniProt Q4PRK9 1-316); experiment: colorimetric AuNP/CTAB aggregation assay (A650/A520); details: protein: recombinant; chain copies: 4

Chain of fibrinogen (P02671 other isoform, or with tags, fused parts or gaps, chain 1 of 3): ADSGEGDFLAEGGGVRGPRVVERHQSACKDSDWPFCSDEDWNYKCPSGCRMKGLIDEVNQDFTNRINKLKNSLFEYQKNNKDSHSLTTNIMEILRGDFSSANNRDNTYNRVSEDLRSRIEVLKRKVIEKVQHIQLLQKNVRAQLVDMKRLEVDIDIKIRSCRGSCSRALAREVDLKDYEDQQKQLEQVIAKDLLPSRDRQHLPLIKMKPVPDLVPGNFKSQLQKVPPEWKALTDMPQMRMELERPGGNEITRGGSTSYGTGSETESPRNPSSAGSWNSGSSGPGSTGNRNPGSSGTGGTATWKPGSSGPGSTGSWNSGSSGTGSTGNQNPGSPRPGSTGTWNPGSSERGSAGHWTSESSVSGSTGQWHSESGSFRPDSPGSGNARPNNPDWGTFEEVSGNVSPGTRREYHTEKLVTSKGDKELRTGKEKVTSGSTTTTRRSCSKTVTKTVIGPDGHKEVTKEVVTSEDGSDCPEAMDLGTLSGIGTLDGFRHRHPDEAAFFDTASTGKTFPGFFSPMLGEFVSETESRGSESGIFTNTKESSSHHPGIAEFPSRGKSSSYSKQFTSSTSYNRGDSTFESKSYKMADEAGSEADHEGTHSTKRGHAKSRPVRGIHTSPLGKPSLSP
Chain of fibrinogen (P02675 31-491, chain 2 of 3): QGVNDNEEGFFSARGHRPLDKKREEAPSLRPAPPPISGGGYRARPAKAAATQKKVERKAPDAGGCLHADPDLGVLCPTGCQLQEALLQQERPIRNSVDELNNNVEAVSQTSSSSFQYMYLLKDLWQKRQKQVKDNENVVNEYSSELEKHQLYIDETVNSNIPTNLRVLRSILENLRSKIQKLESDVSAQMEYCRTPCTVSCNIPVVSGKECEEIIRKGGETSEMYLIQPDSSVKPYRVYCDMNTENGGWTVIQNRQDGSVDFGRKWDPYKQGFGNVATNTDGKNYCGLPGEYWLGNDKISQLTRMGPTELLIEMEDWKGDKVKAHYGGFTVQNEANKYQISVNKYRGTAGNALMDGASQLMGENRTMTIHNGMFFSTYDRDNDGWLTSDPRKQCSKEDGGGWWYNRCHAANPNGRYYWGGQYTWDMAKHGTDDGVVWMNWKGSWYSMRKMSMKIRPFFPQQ
Chain of fibrinogen (P02679 other isoform, or with tags, fused parts or gaps, chain 3 of 3): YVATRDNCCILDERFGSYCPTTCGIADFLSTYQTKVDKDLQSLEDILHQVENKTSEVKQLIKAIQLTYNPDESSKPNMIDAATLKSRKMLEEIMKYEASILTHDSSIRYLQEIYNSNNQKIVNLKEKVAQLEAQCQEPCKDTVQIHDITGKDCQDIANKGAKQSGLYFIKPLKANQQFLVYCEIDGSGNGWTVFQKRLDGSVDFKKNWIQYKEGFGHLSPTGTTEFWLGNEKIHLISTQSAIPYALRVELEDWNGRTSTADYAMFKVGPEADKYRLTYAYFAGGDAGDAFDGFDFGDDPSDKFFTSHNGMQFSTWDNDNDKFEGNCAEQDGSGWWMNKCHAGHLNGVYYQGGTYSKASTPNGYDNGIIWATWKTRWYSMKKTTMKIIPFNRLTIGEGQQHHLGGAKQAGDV

B1: pL1 aptamer (ssDNA)
DNA: GTTCGATTGGATTGTGCCGGAAGTGCTGGCTCGAAC
binding result [1]: no binding
binding result (fibrinogen): no binding
binding result [2]: binds
binding result [3]: binds
